Results taken from patent US20260265360A1, “USE OF ANTI-FAM19A5 ANTAGONISTS FOR TREATING HEARING DISORDERS” (NEURACLE SCIENCE CO., LTD., priority 2023, published 2026).

Columns and labels:
C57BL/6 mice = assay: Effect of anti-FAM19A5 antibody administration itself on hearing ability (ABR threshold); assay type: in vivo, mouse; settings: 30 mg/kg i.v. once weekly; 2 weeks post antibody administration; no noise exposure
Description: FIGS. 5A, 5B, and 5C show the effect of FAM19A5 antagonist administration on hearing ability in mice. The effect on hearing was assessed by measuring auditory brainstem response (ABR) generated after FAM19A5 antagonist administration. FIG. 5A provides a schematic of the experimental design. As shown, anti-FAM19A5 antibody (1-30) or control human IgG antibody was administered to the mice intravenously once a week (30 mg/kg per dose). ABR (i.e., hearing test) was measured prior to the initial administration of the antibodies and then at day 1, week 2, and 8 week post antibody administration. FIG. 5B provides comparison of ABR threshold in the mice prior to the initial administration of the anti-FAM19A5 antibody (box) or the control IgG antibody (circle). […] In both FIGS. 5B and 5C, the ABR threshold was measured at a frequency ranging from 0 to 64 kHz.
To assess whether the administration of a FAM19A5 antagonist itself has any effect on hearing, C57BL/6 mice (8 weeks old) were intravenously administered with either an anti-FAM19A5 antibody (1-30 antibody) or a control human IgG antibody. […] To assess hearing, auditory brainstem response (ABR) threshold was measured prior to the initial antibody administration and then at day 1, 2 weeks, and 8 weeks post antibody administration.

human FAM19A5 = human FAM19A5 (Homo sapiens, UniProt Q7Z5A7); assay: HDX-MS epitope mapping; assay type: binding; settings: HDX-MS deuterium uptake heat map; residues of SEQ ID NO: 304
Sequence of human FAM19A5 (Q7Z5A7 26-125 isoform Q7Z5A7-2 limits assumed): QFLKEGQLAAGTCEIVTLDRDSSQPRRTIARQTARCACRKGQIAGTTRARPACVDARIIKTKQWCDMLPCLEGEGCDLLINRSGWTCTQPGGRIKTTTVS
Description: Hydrogen/deuterium exchange mass spectrometry (HDX-MS) was utilized as described below to probe the binding epitope of human FAM19A5 for the clone 2-13 anti-FAM19A5 antibody.
Prior to epitope mapping experiments, non-deuteriated experiments were carried out to generate a list of common peptides for FAM19A5 protein. Off-line and on-line pepsin digestion were used to digest the FAM19A5 protein. Houde, D., et al., Methods Mol Biol 988:269-89 (2013). With on-line digestion, pepsin immobilized column was used (~20° C.) and the efficiency of the reaction was regulated by adjusting the flow rate. With the off-line method, FAM19A5 protein was digested manually with pepsin at 4° C. for 5 minutes, and then, the mixture was loaded to liquid chromatography column for analysis. To identify the condition for maximal protein coverage, one or more of the following parameters were adjusted: potassium phosphate, sodium phosphate, quench holding time, reducing reagent (TCEP), urea concentration, and pepsin concentration. The Waters PLGS software was used to analyze the raw mass spectrometry (MS) data generated to determine whether maximal protein coverage was obtained. To confirm the reproducibility of the experiments, each of the experimental conditions were repeated at least twice, and peptides that were generated were confirmed. […]

FAM19A5 mutants M1 to M8 [1] = molecular target: T1, FAM19A5 mutants M1 to M8 (Homo sapiens, UniProt Q7Z5A7); assay: Epitope mapping ELISA with FAM19A5 mutants M1-M8; assay type: binding
T1 construct: made in house; host or cells: phage display with helper phage
T1 sequence (Q7Z5A7 with tags, fused parts or gaps isoform Q7Z5A7-2, change not shown): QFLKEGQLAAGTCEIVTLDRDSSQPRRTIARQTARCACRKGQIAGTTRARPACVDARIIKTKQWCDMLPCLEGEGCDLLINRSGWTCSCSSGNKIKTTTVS
Description: (§1) To further characterize the binding epitopes of the anti-FAM19A5 antibodies disclosed in the present disclosure, the amino acid sequences for the different FAM19 family members (i.e., FAM19A1-5) were aligned. […] The amino acid sequences of these regions were replaced with the consensus sequence of the corresponding regions for the FAM19A1-4 proteins. See Table 13 (the mutated amino acid residues are bolded and underlined).
(§2) The mutant FAM19A5-expressing phages were prepared as follows. To prepare the media for phage culture, 55.6 ml of 2M Glucose (D-(+)-Glucose, Sigma), 5 mL of 1M MgCl2 (Magnesium chloride, Junsei) 1 mL of 34 mg/mL chloramphenicol (Sigma) were added to 2×YT media. Colonies obtained through mono-phage ELISA were selected and placed in 5 mL of prepared media (2×YT-GMC) to be cultured for 16 hours at 37° C. with shaking incubator (VS-8480, Vision). 100 μL of each culture was transferred to 10 mL 2×YT-GMC individually which were cultured at 37° C. in the incubator until detection value at O.D. 600 nm reached 0.5. Once detection value has reached 0.5 at O.D. 600 nm, 5 mL of each culture were obtained as samples to be infected. Following sample preparation, 50 μL of […] was added to individual samples then incubated at 37° C. without shaking for 30 minutes and with shaking for additional 30 minutes. Individual cultures were centrifuged for 15 minutes at 3,850 rpm using Micro centrifuge (Micro12, Hanil). The supernatants of centrifuged cultures were removed to be kept separate and replaced with 5 mL of 2×YT media containing 1 mL of IM IPTG (AG Scientific), 5 mL of 1M MgCl2.1 ml of 70 μg/μL kanamycin (Biopure) and 1 mL of Chloramphenicol. The resulting pellets were dispersed thoroughly in newly added media followed by incubation at 30° C. for 16 hours with stirring.

FAM19A5 mutants M1 to M8 [2] = molecular target: T2, FAM19A5 mutants M1 to M8 (Homo sapiens, UniProt Q7Z5A7, A66V/A69S/K72P/R67K/R71F); assay: Epitope mapping ELISA with FAM19A5 mutants M1-M8; assay type: binding
T2 construct: made in house; host or cells: phage display with helper phage
T2 sequence (Q7Z5A7 26-125 isoform Q7Z5A7-2 A59V/R60K/A62S/R64F/K65P): as the sequence (Q7Z5A7 26-125 isoform Q7Z5A7-2 limits assumed) above, with A34V, R35K, A37S, R39F, K40P counted along it
Description: as §1, §2

FAM19A5 mutants M1 to M8 [3] = assay: Epitope mapping ELISA with FAM19A5 mutants M1-M8; assay type: binding
Description: as §1, §2

Molecule | ABR threshold values vs control IgG antibody (C57BL/6 mice) | amino acid residues identified as important binding residues (human FAM19A5) | binding to FAM19A5 mutant M8 (FAM19A5 mutants M1 to M8 [1]) | binding to FAM19A5 mutant M4 (FAM19A5 mutants M1 to M8 [2]) | binding to FAM19A5 mutants M1-M3 and M5-M7 (FAM19A5 mutants M1 to M8 [3])
1-30: anti-FAM19A5 antibody, de-immunized variant of 3-2; VH SEQ ID NO: 235, VL SEQ ID NO: 240 (antibody, V domains shown, Low-PI VH, 1-30 VH, 1-17 VH, 1-32 VH, 4-11 VH, 6-10 VH; 1-30 VL) VH: AVTLDESGGGLQTPGGALRLSCKASGFDFESFNMFWVRQAPGKGLEYVSQISSSEEDENYAPAVKGRATISRDNGQSTLYLQMNSLRAEDTGTYYCAKSSYDCPYGHCSSGVDSAGEIDAWGHGTEVIVSS VL: ALTQPSSVSANPGETVKITCSGGGSEEEQYYYGWYQQKPGSAPVTLIYQDEERPSDIPSRFSGSTSGSTATLTITGVQAGDEADYYCGSWDSEDEDHFGAGTTLTVL | remained comparable |  |  |  | 
2-13: anti-FAM19A5 antibody; VH SEQ ID NO: 35, VL SEQ ID NO: 39 (antibody, V domains shown, 2-13 VH; 2-13 VL) VH: AVTLDESGGGLQTPGGALSLVCKASGFTFSSHGMFWVRQTPGKGLEYVAEITNDGSGTNYGSAVKGRATISRDNGQSTVRLQLNNLRAEDTGTYFCARSTYECPGGFSCWGDTGQIDAWGHGTEVIVSS VL: ALTQPSSVSANPGETVKITCSGGSYSYGWFQQKSPGSALVTVIYWDDERPSDIPSRFSGALSGSTNTLTITGVQADDEAVYFCGTEDISGTAGVFGAGTTLTVL |  | 38-50 ([…]; i.e., SEQ ID NO: 199) and 51-64 ([…]; i.e., SEQ ID NO: 200) | failed to bind | failed to bind | moderate to high binding
